*1 amine or outer side, *2 acyl side, *3 side chain or, on linkers, in order; H or OH if unused. Side-chain parts run from the residue outwards. [ ]: non-standard residue; d: D form. The star is where a group is joined. γGlu = O=C(O)[C@H](CCC(=O)[*:2])N[*:1]; Stearoyl = CCCCCCCCCCCCCCCCCC(=O)*; Palmitoyl = CCCCCCCCCCCCCCCC(=O)*; AEEA = NCCOCCOCC(=O)O; Aib = CC(C)(N)C(=O)O
How the values were obtained:
in vivo [1] = details: cynomolgus monkey, sc
Text: Cynomolgus monkeys were used to evaluate the pharmacokinetics in monkeys of the acylated oxyntomodulin peptide analogs according to the present invention.

in vivo [2] = details: ICR, mouse, sc
Text: ICR mice were used to evaluate the pharmacokinetics in mice of the acylated oxyntomodulin peptide analogs according to the present invention.

glucagon receptor = glucagon receptor (Homo sapiens, UniProt P47871); assay: Human glucagon receptor activation assay (CRE-luciferase); assay type: cell-based; parameters: host or cells: CHO-K1; details: CHO-K1 cells transiently transfected; for Emax: 6 h, relative to glucagon, read-out: GCG receptor Maximum activation (% vs GCG); for EC50: 6 hours, 0.1% BSA, read-out: GCG receptor EC50
Protocol: (§1) Then, the resulting increased luciferase activity was evaluated as a measurement of the effect on each receptor activation.
(§2) For positive control, endogenous ligand GLP-1 or glucagon was used for respective evaluation. The above-mentioned acylated oxyntomodulin peptide analogs of Comparative Example 8-12 were synthesized and used as comparative examples.
(§3) After 3 hours of transfection, medium was exchanged to Alpha Minimal Essential Medium (α-MEM) comprising 10% fetal bovine serum (FBS). Next day, the medium was exchanged to α-MEM comprising the acylated oxyntomodulin peptide analog of the present invention and 0.1% bovine serum albumin (BSA). After 6 hours, dual luciferase assay reagent (Promega) was added in the same amount as the medium in which the cells were submerged, and firefly luciferase and Renilla luciferase activities were successively measured. Firefly luciferase activity values were corrected against Renilla luciferase activity to yield transfection efficiency.

GLP-1 receptor = GLP-1 receptor (Homo sapiens, UniProt P43220); assay: Human GLP-1 receptor activation assay (CRE-luciferase); assay type: cell-based; parameters: host or cells: CHO-K1; details: for Emax: CHO-K1, 6 h, read-out: GLP-1 receptor Maximum activation (% vs GLP-1); for EC50: CHO-K1 cells transiently transfected, luciferase, 6 hours, 0.1% BSA
Protocol: as §1, §2, §3

Human GLP-1 receptor = Human GLP-1 receptor (human, UniProt P43220); assay: cell-based or functional assay
Human glucagon receptor = Human glucagon receptor (human, UniProt P47871); assay: cell-based or functional assay

GLP-1 receptor, sequence (P43220 24-463): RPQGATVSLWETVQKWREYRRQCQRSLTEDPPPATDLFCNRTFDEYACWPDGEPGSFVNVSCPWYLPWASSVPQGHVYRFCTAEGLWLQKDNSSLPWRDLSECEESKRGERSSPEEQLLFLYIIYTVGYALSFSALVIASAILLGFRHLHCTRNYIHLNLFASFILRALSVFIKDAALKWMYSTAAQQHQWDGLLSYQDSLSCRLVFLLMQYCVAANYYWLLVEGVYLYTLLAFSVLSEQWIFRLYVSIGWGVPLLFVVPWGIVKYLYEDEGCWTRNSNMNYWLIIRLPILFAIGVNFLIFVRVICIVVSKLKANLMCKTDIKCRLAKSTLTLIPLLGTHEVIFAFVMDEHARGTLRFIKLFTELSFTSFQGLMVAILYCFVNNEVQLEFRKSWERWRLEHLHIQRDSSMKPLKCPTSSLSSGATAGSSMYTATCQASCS
glucagon receptor, sequence (P47871 26-477): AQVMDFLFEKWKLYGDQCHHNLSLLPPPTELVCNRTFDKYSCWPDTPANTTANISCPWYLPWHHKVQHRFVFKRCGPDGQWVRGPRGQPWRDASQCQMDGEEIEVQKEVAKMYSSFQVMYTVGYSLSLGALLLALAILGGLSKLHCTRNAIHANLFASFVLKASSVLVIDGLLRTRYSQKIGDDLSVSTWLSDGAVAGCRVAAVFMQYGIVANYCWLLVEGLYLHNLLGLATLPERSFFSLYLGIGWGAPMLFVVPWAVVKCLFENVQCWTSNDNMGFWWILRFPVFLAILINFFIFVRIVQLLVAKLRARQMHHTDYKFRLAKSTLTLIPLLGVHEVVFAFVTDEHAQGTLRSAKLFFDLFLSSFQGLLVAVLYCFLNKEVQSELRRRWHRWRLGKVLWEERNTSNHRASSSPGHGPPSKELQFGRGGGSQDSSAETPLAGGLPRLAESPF

Molecule	EC50 (Human GLP-1 receptor) [pM]	Maximum activation (% vs GLP-1) (Human GLP-1 receptor) [%]	EC50 (Human glucagon receptor) [pM]	Maximum activation (% vs GCG) (Human glucagon receptor) [%]	further results
CCCCCCCCCCCCCCCCCC(=O)N[C@@H](CCC(=O)NCCOCCOCC(=O)NCCOCCOCC(=O)NCCCC[C@H](NC(=O)[C@H](CC(=O)O)NC(=O)[C@H](CO)NC(=O)[C@@H](NC(=O)[C@H](Cc1ccccc1)NC(=O)[C@@H](NC(=O)CNC(=O)[C@H](CCC(N)=O)NC(=O)C(C)(C)NC(=O)[C@@H](N)Cc1c[nH]cn1)[C@@H](C)O)[C@@H](C)O)C(=O)N[C@@H](CO)C(=O)N[C@@H](CCCCN)C(=O)N[C@@H](Cc1ccc(O)cc1)C(=O)N[C@@H](CC(C)C)C(=O)N[C@@H](CC(=O)O)C(=O)NC(C)(C)C(=O)N[C@@H](CCCNC(=N)N)C(=O)N[C@@H](CCCNC(=N)N)C(=O)N[C@@H](C)C(=O)N[C@@H](CCC(N)=O)C(=O)N[C@@H](CC(=O)O)C(=O)N[C@@H](Cc1ccccc1)C(=O)N[C@H](C(=O)N[C@@H](CCC(N)=O)C(=O)N[C@@H](Cc1c[nH]c2ccccc12)C(=O)N[C@@H](CC(C)C)C(=O)N[C@@H](CCSC)C(=O)N[C@@H](CC(N)=O)C(=O)N[C@H](C(=O)N[C@@H](CCCCN)C(=O)N[C@@H](CCC(=O)O)C(=O)N[C@@H](Cc1ccc(O)cc1)C(=O)N[C@@H](CCC(=O)O)C(=O)N[C@@H](CCCCNC(=O)CCCCCCCCCCCCC(=O)O)C(=O)N[C@@H](CCC(=O)O)C(=O)N[C@@H](Cc1ccc(O)cc1)C(=O)N[C@@H](CCC(=O)O)C(=O)O)[C@@H](C)O)C(C)C)C(=O)O [Compound 1]	–	–	–	–	half-life (in vivo [1]; Monkey PK (S.C. half-life)): 720 to 1080 min; half-life (in vivo [1]; monkey PK half-life): > 720 min; half-life (in vivo [2]; Mouse PK (S.C. half-life)): > 360 min; half-life (in vivo [2]; half-life in mice): > 360 min; Emax (glucagon receptor): 107%; EC50 (glucagon receptor): < 0.1 nM; Emax (GLP-1 receptor): 102%; EC50 (GLP-1 receptor): < 0.1 nM
CCCCCCCCCCCCCCCCCC(=O)N[C@@H](CCC(=O)NCCOCCOCC(=O)NCCOCCOCC(=O)NCCCC[C@H](NC(=O)[C@H](CC(=O)O)NC(=O)[C@H](CO)NC(=O)[C@@H](NC(=O)[C@H](Cc1ccccc1)NC(=O)[C@@H](NC(=O)CNC(=O)[C@H](CCC(N)=O)NC(=O)C(C)(C)NC(=O)[C@@H](N)Cc1c[nH]cn1)[C@@H](C)O)[C@@H](C)O)C(=O)N[C@@H](CO)C(=O)N[C@@H](CCCCN)C(=O)N[C@@H](Cc1ccc(O)cc1)C(=O)N[C@@H](CC(C)C)C(=O)N[C@@H](CC(=O)O)C(=O)NC(C)(C)C(=O)N[C@@H](CCCNC(=N)N)C(=O)N[C@@H](CCCNC(=N)N)C(=O)N[C@@H](C)C(=O)N[C@@H](CCC(N)=O)C(=O)N[C@@H](CC(=O)O)C(=O)N[C@@H](Cc1ccccc1)C(=O)N[C@H](C(=O)N[C@@H](CCC(N)=O)C(=O)N[C@@H](Cc1c[nH]c2ccccc12)C(=O)N[C@@H](CC(C)C)C(=O)N[C@@H](CCSC)C(=O)N[C@@H](CC(N)=O)C(=O)N[C@H](C(=O)N[C@@H](CCCCN)C(=O)O)[C@@H](C)O)C(C)C)C(=O)O [Compound 8]	–	–	–	–	half-life (in vivo [2]; Mouse PK (S.C. half-life)): < 360 min; Emax (glucagon receptor): 103%; EC50 (glucagon receptor): < 0.1 nM; Emax (GLP-1 receptor): 99.3%; EC50 (GLP-1 receptor): < 0.1 nM
H-H[Aib]QGTFTSDK([AEEA-AEEA-γGlu-Stearoyl])SKYLD[Aib]RRAQDFVQWLMNTKEYEK(13‑aminocarboxy‑1‑oxotridecyl)EYE-OH [Comparative Example Compound 10]	< 100	105	< 100	110	–
H-H[Aib]QGTFTSDK([AEEA-AEEA-γGlu-Stearoyl])SKYLD[Aib]RRAQDFVQWLMNTKEYEK(15‑carboxy‑1‑oxopentadecyl)EYE-OH [Compound 2]	–	104	–	100	–
H-H[Aib]QGTFTSDK([AEEA-AEEA-γGlu-Stearoyl])SKYLD[Aib]RRAQDFVQWLMNTKEYEK(15‑aminocarboxy‑1‑oxopentadecyl)EYE-OH [Comparative Example Compound 11]	< 100	92.8	< 100	98.5	–
H-H[Aib]QGTFTSDK([AEEA-AEEA-γGlu-Stearoyl])SKYLD[Aib]RRAQDFVQWLMNTKEYEK(17‑aminocarboxy‑1‑oxoheptadecyl)EYE-OH [Compound 7]	< 100	90.8	< 100	100	–
H-H[Aib]QGTFTSDK([AEEA-AEEA-γGlu-Stearoyl])SKYLD[Aib]RRAQDFVQWLMNTKEYEK([AEEA-AEEA-AEEA-Palmitoyl])EYE-OH (SMILES CCCCCCCCCCCCCCCCCC(=O)N[C@@H](CCC(=O)NCCOCCOCC(=O)NCCOCCOCC(=O)NCCCC[C@H](NC(=O)[C@H](CC(=O)O)NC(=O)[C@H](CO)NC(=O)[C@@H](NC(=O)[C@H](Cc1ccccc1)NC(=O)[C@@H](NC(=O)CNC(=O)[C@H](CCC(N)=O)NC(=O)C(C)(C)NC(=O)[C@@H](N)Cc1c[nH]cn1)[C@@H](C)O)[C@@H](C)O)C(=O)N[C@@H](CO)C(=O)N[C@@H](CCCCN)C(=O)N[C@@H](Cc1ccc(O)cc1)C(=O)N[C@@H](CC(C)C)C(=O)N[C@@H](CC(=O)O)C(=O)NC(C)(C)C(=O)N[C@@H](CCCNC(=N)N)C(=O)N[C@@H](CCCNC(=N)N)C(=O)N[C@@H](C)C(=O)N[C@@H](CCC(N)=O)C(=O)N[C@@H](CC(=O)O)C(=O)N[C@@H](Cc1ccccc1)C(=O)N[C@H](C(=O)N[C@@H](CCC(N)=O)C(=O)N[C@@H](Cc1c[nH]c2ccccc12)C(=O)N[C@@H](CC(C)C)C(=O)N[C@@H](CCSC)C(=O)N[C@@H](CC(N)=O)C(=O)N[C@H](C(=O)N[C@@H](CCCCN)C(=O)N[C@@H](CCC(=O)O)C(=O)N[C@@H](Cc1ccc(O)cc1)C(=O)N[C@@H](CCC(=O)O)C(=O)N[C@@H](CCCCNC(=O)COCCOCCNC(=O)COCCOCCNC(=O)COCCOCCNC(=O)CCCCCCCCCCCCCCC)C(=O)N[C@@H](CCC(=O)O)C(=O)N[C@@H](Cc1ccc(O)cc1)C(=O)N[C@@H](CCC(=O)O)C(=O)O)[C@@H](C)O)C(C)C)C(=O)O) [Comparative Example Compound 12]	< 100	102	< 100	89.6	–
H-H[Aib]QGTFTSDK([AEEA-AEEA-γGlu-Stearoyl])SKYLD[Aib]RRAQDFVQWLMNTKEYEK(Palmitoyl)EYE-OH (SMILES CCCCCCCCCCCCCCCCCC(=O)N[C@@H](CCC(=O)NCCOCCOCC(=O)NCCOCCOCC(=O)NCCCC[C@H](NC(=O)[C@H](CC(=O)O)NC(=O)[C@H](CO)NC(=O)[C@@H](NC(=O)[C@H](Cc1ccccc1)NC(=O)[C@@H](NC(=O)CNC(=O)[C@H](CCC(N)=O)NC(=O)C(C)(C)NC(=O)[C@@H](N)Cc1c[nH]cn1)[C@@H](C)O)[C@@H](C)O)C(=O)N[C@@H](CO)C(=O)N[C@@H](CCCCN)C(=O)N[C@@H](Cc1ccc(O)cc1)C(=O)N[C@@H](CC(C)C)C(=O)N[C@@H](CC(=O)O)C(=O)NC(C)(C)C(=O)N[C@@H](CCCNC(=N)N)C(=O)N[C@@H](CCCNC(=N)N)C(=O)N[C@@H](C)C(=O)N[C@@H](CCC(N)=O)C(=O)N[C@@H](CC(=O)O)C(=O)N[C@@H](Cc1ccccc1)C(=O)N[C@H](C(=O)N[C@@H](CCC(N)=O)C(=O)N[C@@H](Cc1c[nH]c2ccccc12)C(=O)N[C@@H](CC(C)C)C(=O)N[C@@H](CCSC)C(=O)N[C@@H](CC(N)=O)C(=O)N[C@H](C(=O)N[C@@H](CCCCN)C(=O)N[C@@H](CCC(=O)O)C(=O)N[C@@H](Cc1ccc(O)cc1)C(=O)N[C@@H](CCC(=O)O)C(=O)N[C@@H](CCCCNC(=O)CCCCCCCCCCCCCCC)C(=O)N[C@@H](CCC(=O)O)C(=O)N[C@@H](Cc1ccc(O)cc1)C(=O)N[C@@H](CCC(=O)O)C(=O)O)[C@@H](C)O)C(C)C)C(=O)O) [Comparative Example Compound 9]	–	70.4	–	73.3	–
H-H[Aib]QGTFTSDK([AEEA-AEEA-γGlu-Stearoyl])SKYLD[Aib]RRAQDFVQWLMNTK-OH (SMILES CCCCCCCCCCCCCCCCCC(=O)N[C@@H](CCC(=O)NCCOCCOCC(=O)NCCOCCOCC(=O)NCCCC[C@H](NC(=O)[C@H](CC(=O)O)NC(=O)[C@H](CO)NC(=O)[C@@H](NC(=O)[C@H](Cc1ccccc1)NC(=O)[C@@H](NC(=O)CNC(=O)[C@H](CCC(N)=O)NC(=O)C(C)(C)NC(=O)[C@@H](N)Cc1c[nH]cn1)[C@@H](C)O)[C@@H](C)O)C(=O)N[C@@H](CO)C(=O)N[C@@H](CCCCN)C(=O)N[C@@H](Cc1ccc(O)cc1)C(=O)N[C@@H](CC(C)C)C(=O)N[C@@H](CC(=O)O)C(=O)NC(C)(C)C(=O)N[C@@H](CCCNC(=N)N)C(=O)N[C@@H](CCCNC(=N)N)C(=O)N[C@@H](C)C(=O)N[C@@H](CCC(N)=O)C(=O)N[C@@H](CC(=O)O)C(=O)N[C@@H](Cc1ccccc1)C(=O)N[C@H](C(=O)N[C@@H](CCC(N)=O)C(=O)N[C@@H](Cc1c[nH]c2ccccc12)C(=O)N[C@@H](CC(C)C)C(=O)N[C@@H](CCSC)C(=O)N[C@@H](CC(N)=O)C(=O)N[C@H](C(=O)N[C@@H](CCCCN)C(=O)O)[C@@H](C)O)C(C)C)C(=O)O) [Comparative Example Compound 8]	< 100	99.3	< 100	103	–
